B4: TBP (159-339) (domain or fragment, human, UniProt P20226 159-339, looked up)
chain: SGIVPQLQNIVSTVNLGCKLDLKTIALRARNAEYNPKRFAAVIMRIREPRTTALIFSSGKMVCTGAKSEEQSRLAARKYARVVQKLGFPAKFLDFKIQNMVGSCDVKFPIRLEGLVLTHQQFSSYEPELFPGLIYRMIKPRIVLLIFVSGKVVLTGAKVRAEIYEAFENIYPILKGFRKTT
notes: source: E. coli Rosetta (DE3)pLysS, purified (HisTrap, heparin, 3C cleavage, SEC)

Assays:
[1] = biological target: B4; experiment: crystal structure; Brf2 (62-419), TBP (159-339) and Bdp1SANT with 25 bp of the human U6 promoter; complex at 60 uM, equimolar TBP and Brf2, 1.1 molar excess of Bdp1SANT, 1.2 excess of dsDNA; hanging drop, PEG 8000, KCl, MES pH 6.5, MgCl2; 2.7 Å; conditions: both partners purified
[2] = biological target: T1, Brf2 (62-419) (human, UniProt Q9HAW0 62-419); experiment: as above; conditions: both partners purified
T1 construct: Brf2 (TFIIB-related factor II), human, residues 62-419; also called TFIIB-related factor II; source: E. coli Rosetta (DE3)pLysS, co-expressed with TBP, purified in isolation (HisTrap, heparin, 3C cleavage, SEC); not shown: His tag, N-terminal, cleaved

[3] = biological target: T2, Brf2–TBP complex on U6 promoter DNA (Brf2–TBP–DNA complex) (human, UniProt Q9HAW0 62-419; P20226 159-339); experiment: as above; conditions: both partners purified
T2 construct: Brf2 (TFIIB-related factor II), human, residues 62-419; The complex stands on double-stranded U6 promoter DNA in every experiment (Cy5-labelled U6_2 38-mer in EMSA; 25 bp fragment with overhangs in the crystal); Bdp1 also contacts the DNA; also called TBP–Brf2; source: E. coli Rosetta (DE3)pLysS, each protein purified, assembled with double-stranded U6 promoter DNA; not shown: His tag, …

[4] = biological target: T2, Brf2–TBP complex on U6 promoter DNA …; experiment: native gel or EMSA; 1.5 pmol Cy5-labelled U6_2 dsDNA, 5 pmol TBP (159-339), 7 pmol Brf2 (62-419), 10 pmol Bdp1 construct in 20 ul; 500 mM ammonium acetate, 50 mM HEPES pH 7.9, 10% glycerol, 1 mM TCEP; 21 °C, 20 min; 4.5% polyacrylamide gel; conditions: both partners purified
[5] = biological target: T3, TBP (core);Brf2 (62-419);Bdp1SANT (Homo sapiens;Homo sapiens;Homo sapiens, UniProt P20226;Q9HAW0;A6H8Y1 159-339;62-419;241-396, ||); experiment: X-ray crystallography; 2.7 A; EMSA: 500 mM ammonium acetate, 50 mM HEPES pH 7.9, 10% glycerol, 1 mM TCEP, 21 °C 20 min, diluted twofold (100 mM ammonium acetate, 40% glycerol) before loading; SNAPc EMSA: 500 mM NaCl, 50 mM HEPES pH 7.9, 20% glycerol, 1 mM TCEP, 21 °C; smFRET lifetimes: T78 buffer, 1 mM DTT, room temperature; conditions: protein: recombinant;recombinant;recombinant; tags: His-tag cleaved (3C);N-terminal His-tag cleaved (3C);N-terminal His, cleavable; cleaved for crystallization; copies: 1;1;1; 25 bp; template strand S1 has 1 nt 5' and 1 nt 3' overhang
[6] = biological target: SNAPcΔ;Bdp1-WT (Homo sapiens?;Homo sapiens, UniProt Q5SXM2;Q92966;Q16533;O75971;A6H8Y1 1-516;1-411;1-368;1-98;1-484, |); experiment: EMSA; Bdp1 binding to SNAPc-DNA; EMSA: 500 mM ammonium acetate, 50 mM HEPES pH 7.9, 10% glycerol, 1 mM TCEP, 21 °C 20 min, diluted twofold (100 mM ammonium acetate, 40% glycerol) before loading; SNAPc EMSA: 500 mM NaCl, 50 mM HEPES pH 7.9, 20% glycerol, 1 mM TCEP, 21 °C; smFRET lifetimes: T78 buffer, 1 mM DTT, room temperature; conditions: protein: recombinant;recombinant; tags: N-terminal Strep on SNAPc190Δ; His cleaved from SNAPc50;C-terminal His (uncleavable); copies: 1;1;1;1;1; blunt
[7] = biological target: SNAPcΔ;Bdp1SANT (Homo sapiens?;Homo sapiens, UniProt Q5SXM2;Q92966;Q16533;O75971;A6H8Y1 1-516;1-411;1-368;1-98;241-396, |); experiment: EMSA; Bdp1SANT not recruited to SNAPc-DNA; not loss of SNAPc-DNA binding; EMSA: 500 mM ammonium acetate, 50 mM HEPES pH 7.9, 10% glycerol, 1 mM TCEP, 21 °C 20 min, diluted twofold (100 mM ammonium acetate, 40% glycerol) before loading; SNAPc EMSA: 500 mM NaCl, 50 mM HEPES pH 7.9, 20% glycerol, 1 mM TCEP, 21 °C; smFRET lifetimes: T78 buffer, 1 mM DTT, room temperature; conditions: protein: recombinant;recombinant; tags: N-terminal Strep on SNAPc190Δ; His cleaved from SNAPc50;N-terminal His, cleavable; cleaved for crystallization; copies: 1;1;1;1;1; blunt
[8] = biological target: T4, TBP (core);Brf2 (62-419) (Homo sapiens;Homo sapiens, UniProt P20226;Q9HAW0 159-339;62-419, |); experiment: competition; 0-200x unlabelled same-sequence DNA; less stable than with Bdp1SANT; EMSA: 500 mM ammonium acetate, 50 mM HEPES pH 7.9, 10% glycerol, 1 mM TCEP, 21 °C 20 min, diluted twofold (100 mM ammonium acetate, 40% glycerol) before loading; SNAPc EMSA: 500 mM NaCl, 50 mM HEPES pH 7.9, 20% glycerol, 1 mM TCEP, 21 °C; smFRET lifetimes: T78 buffer, 1 mM DTT, room temperature; conditions: protein: recombinant;recombinant; tags: His-tag cleaved (3C);N-terminal His-tag cleaved (3C); copies: 1;1; label: 5' Cy5 on strand 1; blunt
[9] = biological target: T3, TBP (core);Brf2 (62-419);Bdp1SANT; experiment: EMSA; similar affinity to longer Bdp1 constructs; EMSA: 500 mM ammonium acetate, 50 mM HEPES pH 7.9, 10% glycerol, 1 mM TCEP, 21 °C 20 min, diluted twofold (100 mM ammonium acetate, 40% glycerol) before loading; SNAPc EMSA: 500 mM NaCl, 50 mM HEPES pH 7.9, 20% glycerol, 1 mM TCEP, 21 °C; smFRET lifetimes: T78 buffer, 1 mM DTT, room temperature; conditions: protein: recombinant;recombinant;recombinant; tags: His-tag cleaved (3C);N-terminal His-tag cleaved (3C);N-terminal His, cleavable; cleaved for crystallization; copies: 1;1;1; label: 5' Cy5 on strand 1; blunt
[10] = biological target: TBP (core) (Homo sapiens, UniProt P20226 159-339); experiment: smFRET; 10 nM TBP; complex lifetime 0.29 s; EMSA: 500 mM ammonium acetate, 50 mM HEPES pH 7.9, 10% glycerol, 1 mM TCEP, 21 °C 20 min, diluted twofold (100 mM ammonium acetate, 40% glycerol) before loading; SNAPc EMSA: 500 mM NaCl, 50 mM HEPES pH 7.9, 20% glycerol, 1 mM TCEP, 21 °C; smFRET lifetimes: T78 buffer, 1 mM DTT, room temperature; conditions: protein: recombinant; tags: His-tag cleaved (3C); label: internal ATTO 532 donor and ATTO 647N acceptor; immobilized in TIRF assay; blunt
[11] = biological target: T4, TBP (core);Brf2 (62-419); experiment: smFRET; complex lifetime 381 ± 33 s (heparin trap); EMSA: 500 mM ammonium acetate, 50 mM HEPES pH 7.9, 10% glycerol, 1 mM TCEP, 21 °C 20 min, diluted twofold (100 mM ammonium acetate, 40% glycerol) before loading; SNAPc EMSA: 500 mM NaCl, 50 mM HEPES pH 7.9, 20% glycerol, 1 mM TCEP, 21 °C; smFRET lifetimes: T78 buffer, 1 mM DTT, room temperature; conditions: protein: recombinant;recombinant; tags: His-tag cleaved (3C);N-terminal His-tag cleaved (3C); copies: 1;1; label: internal ATTO 532 donor and ATTO 647N acceptor; immobilized in TIRF assay; blunt
[12] = biological target: T3, TBP (core);Brf2 (62-419);Bdp1SANT; experiment: smFRET; complex lifetime 547 ± 87 s (heparin trap); EMSA: 500 mM ammonium acetate, 50 mM HEPES pH 7.9, 10% glycerol, 1 mM TCEP, 21 °C 20 min, diluted twofold (100 mM ammonium acetate, 40% glycerol) before loading; SNAPc EMSA: 500 mM NaCl, 50 mM HEPES pH 7.9, 20% glycerol, 1 mM TCEP, 21 °C; smFRET lifetimes: T78 buffer, 1 mM DTT, room temperature; conditions: protein: recombinant;recombinant;recombinant; tags: His-tag cleaved (3C);N-terminal His-tag cleaved (3C);N-terminal His, cleavable; cleaved for crystallization; copies: 1;1;1; label: internal ATTO 532 donor and ATTO 647N acceptor; immobilized in TIRF assay; blunt

T3 sequence (Q9HAW0 62-419, one chain of several): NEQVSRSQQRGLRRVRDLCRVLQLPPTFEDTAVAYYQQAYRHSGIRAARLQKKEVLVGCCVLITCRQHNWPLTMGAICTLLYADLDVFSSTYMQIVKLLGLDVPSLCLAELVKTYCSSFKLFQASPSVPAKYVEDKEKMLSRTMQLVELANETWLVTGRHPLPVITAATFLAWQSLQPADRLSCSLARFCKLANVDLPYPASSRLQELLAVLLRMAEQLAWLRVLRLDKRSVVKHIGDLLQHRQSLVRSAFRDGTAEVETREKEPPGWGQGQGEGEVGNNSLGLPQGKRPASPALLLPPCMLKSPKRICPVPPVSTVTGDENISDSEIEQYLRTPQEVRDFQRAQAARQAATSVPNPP
T4 sequence (Q9HAW0 62-419, one chain of several): as above
T2 sequence (Q9HAW0 62-419, one chain of several): as above
T1 sequence (Q9HAW0 62-419): as the sequence (Q9HAW0 62-419, one chain of several) above
Sequence of SNAPcΔ;Bdp1SANT (Q5SXM2 1-516, stated change not applied, chain 1 of 4): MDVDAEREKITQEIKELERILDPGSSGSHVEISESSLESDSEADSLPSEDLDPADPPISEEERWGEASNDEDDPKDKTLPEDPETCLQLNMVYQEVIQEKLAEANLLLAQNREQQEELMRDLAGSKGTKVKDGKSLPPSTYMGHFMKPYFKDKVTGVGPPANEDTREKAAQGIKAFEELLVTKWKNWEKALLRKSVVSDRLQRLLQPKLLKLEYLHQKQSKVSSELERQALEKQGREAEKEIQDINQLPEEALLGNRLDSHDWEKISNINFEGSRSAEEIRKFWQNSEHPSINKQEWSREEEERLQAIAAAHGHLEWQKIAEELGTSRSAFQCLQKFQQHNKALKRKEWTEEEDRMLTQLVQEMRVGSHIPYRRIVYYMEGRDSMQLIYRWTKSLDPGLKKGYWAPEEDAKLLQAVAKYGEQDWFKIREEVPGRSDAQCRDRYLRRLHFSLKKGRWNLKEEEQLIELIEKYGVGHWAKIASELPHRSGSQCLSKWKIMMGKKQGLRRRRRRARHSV
Sequence of SNAPcΔ;Bdp1SANT (Q92966 whole entry, stated change not applied, chain 2 of 4): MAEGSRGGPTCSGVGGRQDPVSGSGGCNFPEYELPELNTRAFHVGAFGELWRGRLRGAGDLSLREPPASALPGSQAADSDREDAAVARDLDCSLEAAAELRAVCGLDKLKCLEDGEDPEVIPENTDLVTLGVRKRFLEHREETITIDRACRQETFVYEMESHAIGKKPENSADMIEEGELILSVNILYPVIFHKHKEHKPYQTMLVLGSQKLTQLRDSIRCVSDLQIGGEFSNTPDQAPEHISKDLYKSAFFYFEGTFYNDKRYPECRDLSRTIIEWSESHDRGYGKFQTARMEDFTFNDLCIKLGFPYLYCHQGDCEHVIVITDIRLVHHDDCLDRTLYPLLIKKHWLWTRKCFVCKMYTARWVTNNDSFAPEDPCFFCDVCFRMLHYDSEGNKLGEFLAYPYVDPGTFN
Sequence of SNAPcΔ;Bdp1SANT (Q16533 whole entry, stated change not applied, chain 3 of 4): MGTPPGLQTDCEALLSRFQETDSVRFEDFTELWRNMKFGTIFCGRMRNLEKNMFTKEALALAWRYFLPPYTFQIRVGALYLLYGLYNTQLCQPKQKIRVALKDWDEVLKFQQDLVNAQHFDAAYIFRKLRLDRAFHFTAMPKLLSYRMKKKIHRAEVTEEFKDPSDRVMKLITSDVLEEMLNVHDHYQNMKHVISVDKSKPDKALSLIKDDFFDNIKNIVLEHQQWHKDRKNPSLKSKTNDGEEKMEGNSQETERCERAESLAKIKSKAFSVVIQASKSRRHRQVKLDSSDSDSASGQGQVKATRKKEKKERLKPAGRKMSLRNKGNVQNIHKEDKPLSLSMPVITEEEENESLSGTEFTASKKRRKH
Sequence of SNAPcΔ;Bdp1SANT (O75971 whole entry, stated change not applied, chain 4 of 4): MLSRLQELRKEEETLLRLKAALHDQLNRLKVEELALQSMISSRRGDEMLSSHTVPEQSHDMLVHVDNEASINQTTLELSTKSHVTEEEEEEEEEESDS

B1: Bdp1SANT, human Bdp1 extended SANT domain (residues 241-396), affinity tag removed for crystallization (domain or fragment, UniProt A6H8Y1 241-396, looked up)
chain: GPLLVPRVKVAEDGSIILDEESLTVEVLRTKGPCVVEENDPIFERGSTTTYSSFRKNYYSKPWSNKETDMFFLAISMVGTDFSMIGQLFPHRARIEIKNKFKREEKTNGWRIDKAFQEKRPFDFDFFAHLLQKVLAEEEKRKQKSVKNHSLKEKKS
notes: Bdp1, human, extended SANT domain, residues 241-396; residues 286-382 are built in the electron density; Cloned into pOPINF (cleavable N-terminal His-tag); tag removed with 3C protease for crystallization; source: E. coli BL21-CodonPlus (DE3)-RIL, purified (Ni-NTA, 3C cleavage, heparin, SEC); not shown: His tag, N-terminal, cleaved
- binding result [1]: binds
- binding result [2]: binds
- binding result [3]: binds

B2: Bdp1SANT, human Bdp1 extended SANT domain (residues 241-396), His-tagged (domain or fragment, UniProt A6H8Y1 241-396, looked up)
chain: GPLLVPRVKVAEDGSIILDEESLTVEVLRTKGPCVVEENDPIFERGSTTTYSSFRKNYYSKPWSNKETDMFFLAISMVGTDFSMIGQLFPHRARIEIKNKFKREEKTNGWRIDKAFQEKRPFDFDFFAHLLQKVLAEEEKRKQKSVKNHSLKEKKS
notes: Bdp1, human, extended SANT domain, residues 241-396; The tag is kept in the pull-down (held on His SpinTrap); it tells of cleavage only for crystallization; source: E. coli BL21-CodonPlus (DE3)-RIL, purified (Ni-NTA, heparin, SEC); not shown: His tag, N-terminal, kept
- binding result [4]: binds

B3: U6 promoter crystallization DNA (dsDNA)
DNA 1: TTGAAGGGCTTAAAATAGGTGTGAC
DNA 2: GGTCACACCTATTTTAAGCCCTTCAAC
- binding result [5]: binds

Binder: B4
- binding result [2]: binds

B5: U6_2 PSE probe (dsDNA)
DNA 1: CCATAAGTTATCCTAACCAAAAGATGATTTGA
DNA 2: TCAAATCATCTTTTGGTTAGGATAACTTATGG
- binding result [6]: binds
- binding result [7]: no binding

B6: U6_2 TATA EMSA probe (dsDNA)
DNA 1: ATTTGATTGAAGGGCTTAAAATAGGTGTGACAGTAACC
DNA 2: GGTTACTGTCACACCTATTTTAAGCCCTTCAATCAAAT
- binding result [8]: binds
- binding result [9]: binds

B7: U6 snRNA promoter smFRET DNA (dsDNA)
DNA 1: CGGACCAAGATGATTTGATTGAAGGGCTTAAAATAGGTGTGAGAGTAACCCTTGA
DNA 2: TCAAGGGTTACTCTCACACCTATTTTAAGCCCTTCAATCAAATCATCTTGGTCCG
- binding result [10]: binds
- binding result [11]: binds
- binding result [12]: binds

From publication PMC5526994 (Nature Communications, 2017)
